From US20170015742A1 (published 2017)

T1: Recombinant rat FcRn (rat, UniProt P13599 23-298, limits assumed)
T1 construct: FcRn is normally a heterodimer with beta-2-microglobulin
T1 sequence (looked up) 1: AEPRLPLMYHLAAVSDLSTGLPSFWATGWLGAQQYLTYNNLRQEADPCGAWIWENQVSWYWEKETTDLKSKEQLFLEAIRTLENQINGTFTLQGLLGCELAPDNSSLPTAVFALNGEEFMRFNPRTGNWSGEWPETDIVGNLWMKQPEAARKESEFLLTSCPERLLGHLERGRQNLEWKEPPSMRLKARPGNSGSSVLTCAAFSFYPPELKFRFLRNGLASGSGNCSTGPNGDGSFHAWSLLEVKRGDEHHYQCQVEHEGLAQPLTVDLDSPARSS
T1 sequence (looked up) 2: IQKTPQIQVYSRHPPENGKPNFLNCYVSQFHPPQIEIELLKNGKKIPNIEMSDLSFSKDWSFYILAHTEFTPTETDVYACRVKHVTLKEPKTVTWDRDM

T2: Recombinant human FcγRIIa H131, 6xHis-tagged (human, UniProt P12318 36-218, limits assumed)
T2 construct: Captured through its 6xHis tag
T2 sequence: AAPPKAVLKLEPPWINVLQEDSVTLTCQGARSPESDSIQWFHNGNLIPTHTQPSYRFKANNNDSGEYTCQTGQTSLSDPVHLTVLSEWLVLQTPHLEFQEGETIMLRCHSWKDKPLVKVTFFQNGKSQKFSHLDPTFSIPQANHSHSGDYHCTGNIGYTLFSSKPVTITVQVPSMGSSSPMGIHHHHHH

T3: Recombinant human FcγRIIb, 6xHis-tagged (human, UniProt P31994 46-217, limits assumed)
T3 construct: Captured through its 6xHis tag; also called huFcRIIb
T3 sequence: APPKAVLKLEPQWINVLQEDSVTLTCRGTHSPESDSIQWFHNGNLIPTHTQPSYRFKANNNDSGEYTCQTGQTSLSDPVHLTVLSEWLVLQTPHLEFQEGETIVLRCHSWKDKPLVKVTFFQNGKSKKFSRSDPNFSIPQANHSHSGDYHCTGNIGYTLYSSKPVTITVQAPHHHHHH

T4: Recombinant human FcγRIIa R131, 6xHis-tagged (human, UniProt P12318 36-218, limits assumed)
T4 construct: Captured through its 6xHis tag
T4 sequence: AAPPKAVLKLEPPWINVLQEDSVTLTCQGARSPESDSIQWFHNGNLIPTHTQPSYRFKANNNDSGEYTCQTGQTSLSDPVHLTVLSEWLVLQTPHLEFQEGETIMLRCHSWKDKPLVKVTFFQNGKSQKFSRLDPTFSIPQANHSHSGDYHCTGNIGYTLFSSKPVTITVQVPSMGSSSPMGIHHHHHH


Experiments:
Human VEGF-A 165 = Human VEGF-A 165 (human, UniProt P15692 207-395); test: cell-based or functional assay
Chain of Human VEGF-A 165 (P15692 other isoform, or with tags, fused parts or gaps): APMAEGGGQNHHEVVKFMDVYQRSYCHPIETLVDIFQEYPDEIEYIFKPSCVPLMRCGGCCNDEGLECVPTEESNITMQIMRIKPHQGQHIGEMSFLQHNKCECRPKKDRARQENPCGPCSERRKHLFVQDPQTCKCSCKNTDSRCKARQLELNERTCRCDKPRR

Recombinant rat FcRn = target: T1, Recombinant rat FcRn; test: Biacore SPR; DVD-Ig immobilised by amine coupling, recombinant FcRn injected; 1:1 binding fit
Description: Human, cynomolgus, mouse, rat and rabbit recombinant FcRns were injected over all the flow cells at a flow rate of 50 μL/minute for 1 minute at a concentrations range of from 2.7 to 6000 nM (three fold serial dilution), followed by a 2 minute dissociation time. The surfaces were regenerated with an injection of 10 mM HCl at 100 μL/minute for 2 seconds followed by an injection of HBS-EP+, pH 7.4, at a flow rate of 50 μL/minute for 30 seconds over all four flow cells. Samples were prepared and run in two running buffer systems, pH 6.0 MES-EP+, and pH […]. Recombinant human FcγRIIIa V158 and rat and mouse FcRn data were fitted to 1:1 kinetic model. Recombinant human FcγRIIa R131 and FcγRIIa H131, FcγRIIIa F158, and recombinant human, cynomolgus and rabbit FcRn binding data were fitted to a steady state affinity model. Biacore T200 Evaluation Software version 2.0 was used to fit all the data.

[1] = target: T5, Recombinant human FcγRIIIa V158, 6xHis-tagged (human, UniProt P08637 17-208, limits assumed); test: Biacore SPR; His-tagged huFcγRIIIa 158V captured on anti-6xHis antibody, DVD-Ig injected; steady state fit
T5 construct: Captured through its 6xHis tag; also called huFcRIIIa 158V
T5 sequence (P08637 other isoform, or with tags, fused parts or gaps limits assumed): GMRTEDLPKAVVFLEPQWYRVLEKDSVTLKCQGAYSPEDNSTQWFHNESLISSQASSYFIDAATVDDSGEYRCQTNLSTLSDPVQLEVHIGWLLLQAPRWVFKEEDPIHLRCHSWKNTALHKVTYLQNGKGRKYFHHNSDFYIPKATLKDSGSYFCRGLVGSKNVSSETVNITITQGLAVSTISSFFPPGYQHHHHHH
Description: (§1) A CM5 chip (GE Healthcare, Pittsburgh, Pa.) with mouse anti-6×His antibodies (“6×His” disclosed as SEQ ID NO: 405) that were directly immobilized on the chip via amine coupling according to the GE Healthcare protocol to the density of 10000RU (all flow cells) was used for experiments. Human FcγRs were captured on flow cells 2, 3 and 4. Flow cell 1 was used as a reference surface. HBS-EP+ was used as the running buffer. […] The chip surfaces were regenerated with an injection of 10 mM glycine pH 1.5 at a flow rate of 100 μL/minute over all four flow cells after each cycle.
The binding of DVD-Ig molecules to FcRn from various species and the binding of DVD-Ig molecules to various FcγRs were characterized by Biacore using the method described in Example 1.2.

[2] = target: T2, Recombinant human FcγRIIa H131, …; test: Biacore SPR; His-tagged human FcγR captured on anti-6xHis antibody, DVD-Ig injected
Description: as §1

[3] = target: T3, Recombinant human FcγRIIb, 6xHis-tagged; test: as above
Description: as §1

[4] = target: T6, Recombinant human FcγRIIIa F158, 6xHis-tagged (human, UniProt P08637 17-208, limits assumed); test: as above
T6 construct: Captured through its 6xHis tag
T6 sequence (P08637 other isoform, or with tags, fused parts or gaps limits assumed): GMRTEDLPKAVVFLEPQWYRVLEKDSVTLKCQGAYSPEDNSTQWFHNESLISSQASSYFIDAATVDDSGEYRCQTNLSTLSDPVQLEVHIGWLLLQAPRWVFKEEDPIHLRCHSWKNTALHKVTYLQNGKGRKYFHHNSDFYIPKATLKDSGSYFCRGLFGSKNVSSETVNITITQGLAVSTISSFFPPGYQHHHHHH
Description: as §1

[5] = target: T4, Recombinant human FcγRIIa R131, …; test: as above
Description: as §1

Binder	huVEGF-A165 Neutralization Potency in HMVEC-d cells (Human VEGF-A 165) [nM]	binding result (Recombinant rat FcRn)	Kd [1] [µM]	binding result [2]	binding result [3]	binding result [4]	binding result [5]
chBEW-9D2 (antibody, human IgG1, kappa, L234A L235A, V domains shown) VH: QIQLVQSGPELKKPGESVKISCKASGYTFTNYGMYWVKLAPGQGLQYLGWINTETGKPTYADDFKGRFVFFLETSASTAYLQINNLRNEDMATYFCARPSDYYDGFWFAYWGQGTLVTVSS VL: DTVLTQSPALTVSPGERVSISCRASEWVNSYMHWYQQNPGQQPKLLIYKASNLASGVPARFSGSGSGTDFTLTLDPVEADDTATYFCQQSWNDPLTFGSGTKLEIKR	2.15	–	–	–	–	–	–
4G8.3-SL-9E8.4(g) (PR-1572105), anti-VEGF-A/anti-PDGF-BB DVD-Ig, hu IgG1/k L234A L235A H435A (bispecific antibody, also called hu VEGF 4G8.3-SL-hu PDGF 9E8.4 (germline) [hu IgG1/k]; LALA H435A) heavy: EVQLVQSGSELKKPGASVKVSCKASGYTFTNYGMYWVRQAPGQGLEWMGWINTETGKPTYADDFKGRFVFSLDTSVSTAYLQISSLKAEDTAVYYCARTNYYYRSYIFYFDYWGQGTMVTVSSASTKGPEVTLRESGPALVKPTQTLTLTCTFSGFSLSTYGMGVGWIRQPPGKALEWLANIWWDDDKYYNPSLKNRLTISKDTSKNQVVLTMTNMDPVDTATYYCARIESIGTTYSFDYWGQGTMVTVSSASTKGPSVFPLAPSSKSTSGGTAALGCLVKDYFPEPVTVSWNSGALTSGVHTFPAVLQSSGLYSLSSVVTVPSSSLGTQTYICNVNHKPSNTKVDKKVEPKSCDKTHTCPPCPAPEAAGGPSVFLFPPKPKDTLMISRTPEVTCVVVDVSHEDPEVKFNWYVDGVEVHNAKTKPREEQYNSTYRVVSVLTVLHQDWLNGKEYKCKVSNKALPAPIEKTISKAKGQPREPQVYTLPPSREEMTKNQVSLTCLVKGFYPSDIAVEWESNGQPENNYKTTPPVLDSDGSFFLYSKLTVDKSRWQQGNVFSCSVMHEALHNAYTQKSLSLSPGK light: DTVLTQSPATLSLSPGERATLSCRASESVSTHMHWYQQKPGQAPRLLIYGASNLESGVPARFSGSGSGTDFTLTISSLEPEDFAVYFCQQSWNDPFTFGQGTKLEIKRTVAAPSVFIFPPEFVLTQSPGTLSLSPGERATLSCERSSGDIGDSYVSWYQQKPGQAPRLVIYADDQRPSGIPDRFSGSGSGTDFTLTISRLEPEDFAVYYCQSYDINIDIVFGGGTKVEIKRTVAAPSVFIFPPSDEQLKSGTASVVCLLNNFYPREAKVQWKVDNALQSGNSQESVTEQDSKDSTYSLSSTLTLSKADYEKHKVYACEVTHQGLSSPVTKSFNRGEC	–	no binding (tested: FcRn 2.7 to 6000 nM)	6.2	no binding (tested: DVD-Ig 31.25 to 4000 nM)	no binding (tested: DVD-Ig 31.25 to 4000 nM)	no binding (tested: DVD-Ig 31.25 to 4000 nM)	no binding (tested: DVD-Ig 31.25 to 4000 nM)
4G8.3-SL-9E8.4 (PR-1569579), anti-VEGF-A/anti-PDGF-BB DVD-Ig, hu IgG1/k mut(234,235) H435A (bispecific antibody, also called hVEGF 4G8.3-SL-hPDGF 9E8.4 [hu IgG1/k] mut(234, 235) H435A) heavy: EVQLVQSGSELKKPGASVKVSCKASGYTFTNYGMYWVRQAPGQGLEWMGWINTETGKPTYADDFKGRFVFSLDTSVSTAYLQISSLKAEDTAVYYCARTNYYYRSYIFYFDYWGQGTMVTVSSASTKGPEVTLRESGPALVKPTQTLTLTCTFSGFSLSTYGMGVGWIRQPPGKALEWLANIWWDDDKYYNPSLKNRLTISKDTSKNQVVLTMTNMDPVDTATYYCARIESIGTTYSFDYWGQGTMVTVSSASTKGPSVFPLAPSSKSTSGGTAALGCLVKDYFPEPVTVSWNSGALTSGVHTFPAVLQSSGLYSLSSVVTVPSSSLGTQTYICNVNHKPSNTKVDKKVEPKSCDKTHTCPPCPAPEAAGGPSVFLFPPKPKDTLMISRTPEVTCVVVDVSHEDPEVKFNWYVDGVEVHNAKTKPREEQYNSTYRVVSVLTVLHQDWLNGKEYKCKVSNKALPAPIEKTISKAKGQPREPQVYTLPPSREEMTKNQVSLTCLVKGFYPSDIAVEWESNGQPENNYKTTPPVLDSDGSFFLYSKLTVDKSRWQQGNVFSCSVMHEALHNAYTQKSLSLSPGK light: DTVLTQSPATLSLSPGERATLSCRASESVSTHMHWYQQKPGQAPRLLIYGASNLESGVPARFSGSGSGTDFTLTISSLEPEDFAVYFCQQSWNDPFTFGQGTKLEIKRTVAAPSVFIFPPEFVLTQSPGTLSLSPGERATLSCERSSGDIGDSYVSWYQQKPGQAPRLVIYADDQRPSGIPDRFSGSGSGTDFTLTISRLEPEDFAVYYCQSYDINIDIVFGGGTKVEIKGTVAAPSVFIFPPSDEQLKSGTASVVCLLNNFYPREAKVQWKVDNALQSGNSQESVTEQDSKDSTYSLSSTLTLSKADYEKHKVYACEVTHQGLSSPVTKSFNRGEC	–	no binding (tested: FcRn 2.7 to 6000 nM)	12	no binding (tested: DVD-Ig 31.25 to 4000 nM)	no binding (tested: DVD-Ig 31.25 to 4000 nM)	no binding (tested: DVD-Ig 31.25 to 4000 nM)	no binding (tested: DVD-Ig 31.25 to 4000 nM)
